Measured values taken from PMC3293909.

Legend:
[1] = target: T1, ephrin B1 (mouse (endogenous in primary osteoclasts))
T1 sequence (P52795 whole entry, looked up): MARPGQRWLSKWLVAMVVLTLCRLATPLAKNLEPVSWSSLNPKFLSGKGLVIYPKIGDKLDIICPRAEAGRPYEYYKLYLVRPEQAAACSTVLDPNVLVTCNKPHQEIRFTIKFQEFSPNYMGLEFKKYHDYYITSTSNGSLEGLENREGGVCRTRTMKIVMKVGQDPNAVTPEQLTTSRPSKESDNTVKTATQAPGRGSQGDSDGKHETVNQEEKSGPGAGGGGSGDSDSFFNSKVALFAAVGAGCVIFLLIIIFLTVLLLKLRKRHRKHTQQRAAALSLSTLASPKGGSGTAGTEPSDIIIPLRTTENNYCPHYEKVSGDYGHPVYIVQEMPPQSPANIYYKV

[2] = target: T1, ephrin B1 (mouse (endogenous in primary osteoclasts)); remark: listed apart in the source

inhibition of NFATc1 mRNA (real-time RT-PCR) in WT osteoclasts treated with EphB2-Fc against control Fc; not in ephrin B1 deficient cells [1]: 67% | inhibition of cathepsin K mRNA (real-time RT-PCR) in WT osteoclasts treated with EphB2-Fc against control Fc; not in ephrin B1 deficient cells [1]: 60% | reduction of TRAP mRNA (real-time RT-PCR) in differentiated WT osteoclasts treated with soluble EphB2-Fc for 4 days against control Fc [1]: 62% | inhibition of the area of bone resorption pits formed by WT osteoclast precursors on bone slices by EphB2-Fc against control Fc; no significant effect on ephrin B1 deficient cells [2]: 54% | suppression of multinucleated cell (MNC) formation from WT splenocyte precursors by EphB2-Fc (2 µg/ml) against control Fc; little effect on ephrin B1 deficient cells [2]: 49.8%
B1: clustered soluble recombinant EphB2-Fc (Fc fusion)
chain: VEETLMDSTTATAELGWMVHPPSGWEEVSGYDENMNTIRTYQVCNVFESSQNNWLRTKFIRRRGAHRIHVEMKFSVRDCSSIPSVPGSCKETFNLYYYEADFDLATKTFPNWMENPWVKVDTIAADESFSQVDLGGRVMKINTEVRSFGPVSRNGFYLAFQDYGGCMSLIAVRVFYRKCPRIIQNGAIFQETLSGAESTSLVAARGSCIANAEEVDVPIKLYCNGDGEWLVPIGRCMCKAGFEAVENGTVCRGCPSGTFKANQGDEACTHCPINSRTTSEGATNCVCRNGYYRADLDPLDMPCTTIPSAPQAVISSVNETSLMLEWTPPRDSGGREDLVYNIICKSCGSGRGACTRCGDNVQYAPRQLGLTEPRIYISDLLAHTQYTFEIQAVNGVTDQSPFSPQFASVNITTNQAAPSAVSIMHQVSRTVDSITLSWSQPDQPNGVILDYELQYYEKELSEYNATAIKSPTNTVTVQGLKAGAIYVFQVRARTVAGYGRYSGKMYFQTMTEAEYQTSIKEKLPL
